# Measurements as given in the DeepSol protein solubility set.
# Assay: soluble on expression in E. coli; label from the status in PepcDB or PDB records
row,Sequence,soluble on expression in E. coli
1,DNPLESPPPEIVKQGKEAVRQYFQSIEEARSKGEALVHLQEIKVHLIGDGMAGKTSLLKQLIGETFDPKESQTHGLNVVTKQAPNIKGLENDDELKECLFHFWDFGGQEIMHASHQFFMTRSSVYMLLLDSRTDSNKHYWLRHIEKYGGKSPVIVVMNKIDENPSYNIEQKKINERFPAIENRFHRISCKNGDGVESIAKSLKSAVLHPDSIYGTPLAPSWIKVKEKLVEATTAQRYLNRTEVEKICNDSGITDPGERKTLLGYLNNLGIVLYFEALDLSEIYVLDPHWVTIGVYRIINSSKTKNGHLNTSALGYILNEEQIRCDEYDPAKNNKFTYTLLEQRYLLDIMKQFELCYDEGKGLFIIPSNLPTQIDNEPEITEGEPLRFIMKYDYLPSTIIPRLMIAMQHQILDRMQWRYGMVLKSQDHEGALAKVVAETKDSTITIAIQGEPRCKREYLSIIWYEIKKINANFTNLDVKEFIPLPGHPDELVEYKELLGLEKMGRDRYVSGKLEKVFSVSKMLDSVISKEERNKER,soluble
2,DPRLARLLGLHTQSRSAIVQALWQYVKTNRLQDSHDKEYINGDKYFQQIFDCPRLKFSEIPQRLTALLLP,soluble
3,DRLGPHRAAMMASLNDAVKAASQHHQAEAFGQGDMFGVLTDAPEEVENKYTQVPPWPEKVWLEGERETLGLYLTGHPINAYLKELNKYTSCRLKDATPTRRDQ,not soluble
4,DVDEVLRLCAEGLHDVLGYERVNILMADTARTSLSFVAAVGTADFNPAGVVLPLDQRGGVITKCFTDRQVYMIDDVSAYPTDFRLQSPYDAIRALRSKSFVICPIVVKGEAIGVFAVDNRSSR,not soluble
5,DVGRVLWLAEDITQRKRRREKQALIERVFEVSPVGIVVVERSGRISLANDRAEELLGLEREKITRRRYDQPEWNIYYKDGTEIPDSEHPVTQVLESGEPVFGFEHWIELEDGSERWLSSNAAPILGDDGTVERVVVGLDD,not soluble
6,DYRPGGFHPAFKGEPYKDARYILVRKLGWGHFSTVWLAKDMVNNTHVAMKIVRGDKVYTEAAEDEIKLLQRVNDADNTKEDSMGANHILKLLDHFNHKGPNGVHVVMVFEVLGENLLALIKKYEHRGIPLIYVKQISKQLLLGLDYMHRRCGIIHTDIKPENVLMEIVDSPENLIQIKIADLGNACWYDEHYTNSIQTREYRSPEVLLGAPWGCGADIWSTACLIFELITGDFLFEPDEGHSYTKDDDHIAQIIELLGELPSYLLRNGKYTRTFFNSRGLLRNISKLKFWPLEDVLTEKYKFSKDEAKEISDFLSPMLQLDPRKRADAGGLVNHPWLKDTLGMEEIRVPDRELYGSGSDIPGWFEEVRDHKRH,soluble
7,EAEAISCGSPPPILNGRISYYSTPIAVGTVIRYSCSGTFRLIGEKSLLCITKDKVDGTWDKPAPKCQYFNKYSSCPEPIVPGGYKIRGSTPYRHGDSVTFACKTNFSMNGNKSVWCQANNMWGPTRLPTCVSVFPLEQKLIS,soluble
8,EAEEDGDLQCLCVKTTSQVRPRHITSLEVIKAGPHCPTAQLIATLKNGRKICLDLQAPLYKKIIKKLLES,soluble
9,EDPSLDRPFISEGTTLKDLIYDMTTSGSGSGLPLLVQRTIARTIVLQESIGKGRFGEVWRGKWRGEEVAVKIFSSREERSWFREAEIYQTVMLRHENILGFIAADNKDNGTWTQLWLVSDYHEHGSLFDYLNRYTVTVEGMIKLALSTASGLAHLHMEIVGTQGKPAIAHRDLKSKNILVKKNGTCCIADLGLAVRHDSATDTIDIAPNHRVGTKRYMAPEVLDDSINMKHFESFKRADIYAMGLVFWEIARRCSIGGIHEDYQLPYYDLVPSDPSVEEMRKVVCEQKLRPNIPNRWQSCEALRVMAKIMRECWYANGAARLTALRIKKTLSQLSQQEGIKM,soluble
10,EDWNEIDPIKKKDLHHSNGEEKAQSMETLPPGKVRWPDFNQEAYVGGTMVRSGQDPYARNKFNQVESDKLRMDRAIPDTRHD,soluble
11,EFSLSTLLEMTVGLASGANNEERFHRLLDAVRKAVICDCVVLMSLHNDTLTPLAMQGLTRDTLGRRFVVSEHPRLAQICSADLPVRFAADCPLPDPFDGLLLDSEDDLPMHSCMGLPLHFGEQLLGILTLDSLKPDAFDHLSPRSLEILAAIAAATLKMTLTFSELENQAKQTQLRLEELNQEAWSRDSVE,not soluble
12,EFSMEDLIPLVNRLQDAFSAIGQNADLDLPQIAVVGGQSAGKSSVLENFVGRDFLPRGSGIVTRRPLVLQLVNATTEYAEFLHCKGKKFTDFEEVRLEIEAETDRVTGTNKGISPVPINLRVYSPHVLNLTLVDLPGMTKVPVGDQPPDIEFQIRDMLMQFVTKENCLILAVSPANSDLANSDALKVAKEVDPQGQRTIGVITKLDLMDEGTDARDVLENKLLPLRRGYIGVVNRSQKDIDGKKDITAALAAERKFFLSHPSYRHLADRMGTPYLQKVLNQQLTNHIRDTLPGLRNKLQSQLLSIEKEVEEYKNFRPDKHGTDSRVDEMLRMYHALKEALSIIGNIN,soluble
13,EGSIGNGLDLTGILFGNIDSEGRLLQDDDGEGRGGTGFDAELRENIGSLSKLGLDSMLLEVIDLKEA,soluble
14,EIAPLFTIENTVEEVEGMRPYTPLELAGRDIYVREGCYACHSQMIRTLRSDVERYGHYSLAAESMYDHPFQWGSKRTGPDLARIGGKYSDDWHVAHLEDPRALVPGSVMPGYAFLSATRLDTGHLPAALEALRRAGVPYTDAQIATAEQAAGWQADAEQAYESELQELFGDNVQLRDFDGRPGELTEMDALVAYLQVLGT,not soluble
15,EIAVIGAAGKTGAAVVAALEGLDDVRRVVHTARRAGDFAVDLETGAGLDKALSGCRGVYFIAPNVHPDEPALLRNTMRAAASVGVDHFVYHSVAWPYTPLMPHHVDKARCEDELRTFGGLRWTVLQPCAYAENFGAVLAGTATTVELPYSPDAAFSFVALADVAEVGARVLVEGPDIHHGATYELGGPEALSVRDLCDRAGGPVSVKQVSVDEWMSRHGRDLTDDGRARLSAMFEFYDRYGFL,not soluble
16,EIKDTYNIGELSPGMTATFEGEVISALPIKEFKRADGSIGKLKSFIVRDETGSIRVTLWDNLTDIDVGRGDYVRVRGYIREGYYGGLECTANYVEILKKGEKIES,soluble

row,Sequence,soluble on expression in E. coli
1,EIRDTKKDLKESEMRLSLALDASNMAAWHIDMDTRHIAYSDTLAVIFGYPKDTTLVWSDLVAQIYPEDMHLYQTARQQMETTGLYEYEIRIVWPDNSIKWIKTIGKMLLDSDGSQRRMIGITRDIT,not soluble
2,EITHRTKTRPVKVGPLTIGGNNEVVIQSMTTTKTHDVEATVAEINRLAEAGCQIVRVACPDERAANAIADIKKRISIPLVVDIHFDYKLALKAIEGGADKIRINPGNIGRREKVEAVVKAAKDKGIPI,not soluble
3,EKFRWFISSEGFLVIGGKDATTNEIVVRKYLEENDLYCHADIWGAPHVVIKDGQKAGEKTIFEACQFAVSMSRAWSEGLYSADAYWVYPNQVKKQAPSGEFLPK,not soluble
4,ELKPTAPPIFTGRPFVVAWDVPTQDCGPRLKVPLDLNAFDVQASPNEGFVNQNITIFYRDRLGLYPRFDSAGRSVHGGVPQNVSLWAHRKMLQKRVEHYIRTQESAGLAVIDWEDWRPVWVRNWQDKDVYRRLSRQLVASRHPDWPPDRIVKQAQYEFEFAAQQFMLETLRYVKAVRPRHLWGFYLFPDCYNHDYVQNWESYTGRCPDVEVARNDQLAWLWAESTALFPSVYLDETLASSRHGRNFVSFRVQEALRVARTHHANHALPVYVFTRPTYSRRLTGLSEMDLISTIGESAALGAAGVILWGDAGYTTSTETCQYLKDYLTRLLVPYVVNVSWATQYCSRAQCHGHGRCVRRNPSASTFLHLSTNSFRLVPGHAPGEPQLRPVGELSWADIDHLQTHFRCQCYLGWSGEQCQWDHRQAAGG,soluble
5,ELVMTQTPSSVSEPVGGTVTIKCQASQSISSWLSWYQQKPGQPPKLLIYDASNLASGVPSRFMGSGSGTEYTLTISGVQREDAATYYCLGGYPAASYRTAFGGGTELEIIRTVAAPSVFIFPPSDEQLKSGTASVVCLLNNFYPREAKVQWKVDNALQSGNSQESVTEQDSKDSTYSLSSTLTLSKADYEKHKVYACEVTHQGLSSPVTKSFNRGEC,soluble
6,ENENRVEALEVRLAFQDELLDALNATVARQQKEIDLLQQQIRLLYQQFRNAQPDDAPGGSLRDDIPPHY,soluble
7,ENGRYEYIVIGSEAAGVGLVRELTAAGKKVLAVDKSKEKIELLEDEGFDAVIADPTDESFYRSLDLEGVSAVLITGSDDEFNLKILKALRSVSDVYAIVRVSSPKKKEEFEEAGANLVVLVADAVKQAFMDKIKKMETL,not soluble
8,ENKILKIEKGTSGWGGPLYIKKEGNRNKILSMTAGGIHEVTLKIKELLGCEIVDGFKTGVSDEEVAVVIIDCGGTARCGVYPKKKIPTINVNPVGKTGPLAKFITEEYYVSDVNPNCISVVDGEDMPQKSQENKSENKSSIRKPDNYDEVKSKAQGEYAKKNIILSIGQGAGQVVSKFYDAGRDTIQMVMNN,not soluble
9,ENLGATVIPASTGNTEKHVRLIRDLGITGIACTPSYALYLAEVVERMGLTKNDINLRIGAFGAEPWTESMRKEIEERLGLKGYNIYGLSEIMGPGVSYECQEQH,not soluble
10,EPAHGRQHTPCLFCDRLFASAEETFSHCKLEHQFNIDSMVHKHGLEFYGYIKLINFIRLKNPTVEYMNSIYNPVPWEKDEYLKPVLEDDLLLQFDVEDLYEPVSTPFS,soluble
11,EQAPQYVDETISLSAKTLFGFDKDSLRAEAQDNLKVLAQRLSRTNIQSVRVEGHTDFMGSDKYNQALSERRAYVVANNLVSNGVPVSRISAVGLGESQAQMTQVCEAEVAKLGAKVSKAKKREALIACIEPDRRVDVKIRSIVTRQVVPAHNHHQHLEHHHHHH,soluble
12,ERGKFAAVFNDITERRLMEDELRRQEQSHRLVLDNIPDIIARFDRELRHLYVSAAITRVTGFPPEHFIGRTNREIGMPDELVDRWDAAINEVFSSGREQRLEFTYQSPRGLRHFETTLIPERGADDSSAAVLVVNHD,not soluble
13,ERSIGFDGVMYFYSDTEKIRDAAFEAALQDQLEWKIEGLKPYVIPADKTLSDRICREDILRGVTIAANGFYGPQGRRLRLPLKDEDLNRKIQAFDFNGSRITNYEMESSSLAGLAALMGHEAITVCCIIAGRKSEKMNTSYQGSIEGLIDLVLERI,not soluble
14,ERVDEKVFSAGTSIFRGILEKVKAPLMYGDREVWGMARASEDFFFILPVTDDLTPVLFYNRLTNEPCFVSDQGITEYFKFAQEGDYIEVEGSSVFMANLLYYRFFPTRITSYNAPIEGVVSKTGNPAFTIPMLPGVSDCIEISNNRKVFLTNQLGVVNITDGMEPPIIAGVSASYGSSVRVYGHVSQRWDIIGHCYLDIYPTNCYPLSTKPVAGDDEVFVKQQGRQIEIDSNSPIVQVVVYDLEGKSVFRKRMTENA,not soluble
15,ESSRSAMMYIQELRSGLRDMHLLSCLESLRVSLNNNPVSWVQTFGAEGLASLLDILKRLHDEKEETSGNYDSRNQHEIIRCLKAFMNNKFGIKTMLETEEGILLLVRAMDPAVPNMMIDAAKLLSALCILPQPEDMNERVLEAMTERAEMDEVERFQPLLDGLKSGTSIALKVGCLQLINALITPAEELDFRVHIRSELMRLGLHQVLQELREIENEDMKVQLCVFDEQGDEDFFDLKGRLDDIRMEMDDFGEVFQIILNTVKDSKAEPHFLSILQHLLLVRNDYEARPQYYKLIEECVSQIVLHKNGTDPDFKCRHLQIDIERLVDQMIDKTKVEKSEAKATELEKKLDSELTARHELQVEMKKMENDFEQKLQDLQGEKDALDS,soluble
